Data on two substances can be found in doi:10.1101/2024.08.09.607165.

A word on the stoichiometry N: it is the number of molecules, sites or subunits per partner or assembly.

Assay [1] addresses TraT encoded by pKpQIL (TraT_(pKpQIL)), mature protein C36-L258 (K. pneumoniae (plasmid pKpQIL)). The assay can be described thus: cryo-EM structure.
The target in assay [2] is TraT encoded by the F plasmid derivative pOX38 (TraTF), mature protein C21-L244 (E. coli (F plasmid, pOX38)). The assay can be described thus: cryo-EM structure.

In turn, “TraT encoded by pKpQIL (TraT_(pKpQIL)), mature protein C36-L258 (natural protein)” yielded a stoichiometry N in assay [1] of 10.

Regarding “TraT encoded by the F plasmid derivative pOX38 (TraTF), mature protein C21-L244 (natural protein)”, in assay [2], the stoichiometry N worked out at 10.
